Source: patent publication US20130108608

Target: T1, recombinant human full-length TrpRS with C-terminal His6 tag
T1 chain: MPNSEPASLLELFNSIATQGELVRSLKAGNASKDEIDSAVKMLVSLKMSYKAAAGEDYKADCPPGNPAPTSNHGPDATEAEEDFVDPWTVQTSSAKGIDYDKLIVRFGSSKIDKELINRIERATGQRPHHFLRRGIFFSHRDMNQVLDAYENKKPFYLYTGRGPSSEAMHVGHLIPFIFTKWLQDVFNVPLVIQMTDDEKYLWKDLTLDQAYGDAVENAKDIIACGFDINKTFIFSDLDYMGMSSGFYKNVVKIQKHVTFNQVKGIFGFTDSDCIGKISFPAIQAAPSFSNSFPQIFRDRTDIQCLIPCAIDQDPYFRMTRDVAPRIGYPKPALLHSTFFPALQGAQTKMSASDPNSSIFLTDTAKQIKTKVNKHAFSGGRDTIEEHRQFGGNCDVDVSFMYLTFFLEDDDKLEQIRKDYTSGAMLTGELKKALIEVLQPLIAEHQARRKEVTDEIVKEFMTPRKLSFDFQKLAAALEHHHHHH

B1: PMN elastase (protein)
chain: IVGGRRARPHAWPFMVSLQLRGGHFCGATLIAPNFVMSAAHCVANVNVRAVRVVLGAHNLSRREPTRQVFAVQRIFENGYDPVNLLNDIVILQLNGSATINANVQVAQLPAQGRRLGNGVQCLAMGWGLLGRNRGIASVLQELNVTVVTSLCRRSNVCTLVRGRQAGVCFGDSGSPLVCNGLIHGIASFVRGGCASGLYPDAFAPVAQFVNWIDSIIQ
cleavage of TrpRS by the protease, fragments on 12.5% SDS-PAGE: PMN elastase cleavage of a full-length TrpRS of about 53 kDa generated a major fragment of about 46 kDa (SEQ ID NO: 5, T1, having the C-terminal histidine tag, or an SY variant thereof) and a minor fragment of about 43.5 kDa
